We go through 5 molecules from PMC7595633 (PLoS Neglected Tropical Diseases, 2020).

A word on the stoichiometry N: it is a count of units in the complex or per binding partner. By Kd is commonly meant the constant that tells how readily two partners part at equilibrium.

Series [1] concerns the molecule itself. Kind of series: native gel or EMSA; PhastGel gradient 8-25%, room temperature; 1 mg/mL (methods), 2 mg/mL (legend of Fig 1D); Coomassie stained. A general note: Mobility shift assays separate free from complexed probe on a gel.
Series [2] has as its target T1, Trypanosoma brucei selenocysteine lyase (TbSCLY), recombinant (Trypanosoma brucei, UniProt Q38DC4 1-451, pyridoxal-phosphate (PLP) bound to the active site).
T1 chain: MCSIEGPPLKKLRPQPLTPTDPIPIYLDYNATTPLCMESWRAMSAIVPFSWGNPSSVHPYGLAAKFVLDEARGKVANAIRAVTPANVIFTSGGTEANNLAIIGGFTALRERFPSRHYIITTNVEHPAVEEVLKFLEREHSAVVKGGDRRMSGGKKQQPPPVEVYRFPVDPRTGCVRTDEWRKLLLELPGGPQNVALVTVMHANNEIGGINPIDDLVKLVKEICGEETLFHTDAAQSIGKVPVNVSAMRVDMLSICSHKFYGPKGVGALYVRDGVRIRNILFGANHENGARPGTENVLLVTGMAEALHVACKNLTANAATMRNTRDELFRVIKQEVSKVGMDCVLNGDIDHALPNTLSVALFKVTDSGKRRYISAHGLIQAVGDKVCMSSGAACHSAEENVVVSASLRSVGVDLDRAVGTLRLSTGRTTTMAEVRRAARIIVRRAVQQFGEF
The series is described as follows: ITC. Background: In ITC the heat of successive injections is recorded.

Series [3] concerns the molecule itself. Kind of series: AUC; sedimentation equilibrium; tetramer to dimers; 0.5, 0.75 and 1.0 mg/mL; 8,000, 10,000 and 12,000 rpm, 4°C; global fit in SEDPHAT.

Several values for one entry are separate records, joined by “and”; a condition that tells them apart may be missing. Equal values may be shown once.

B1: ΔN(69)-LmSEPHS2, N-terminally truncated L. major selenophosphate synthetase (domain or fragment, Leishmania major, UniProt Q4Q0M0 70-398, looked up)
chain: DVGMDCSIVPLHHTNSKGEALFLVSTTDFFFPSVSDPFLQGQIGAANVLSDLYSMGIPDCDTMLMLLAASTEMDEHERLITTREIMKGFAERARLATTTVTGGQTVMNPWPLIGGVAMAVVSEAEMVRPTGLLCAGDILVLTKPLGCQVAVNLKQWLLRPSPLYEEAIAGHISPEEIEELYNMATDSMRRLNREGARLMRKHGAHGATDVTGFGILGHANNFGAAQAVGDAPRSLCLVLERLPMFKTAVAASKQMNDKYRLLEGYSAETSGGLLVAFPSTTAAAAFCAELTAVDGGCPSWIVGHVEDRATNAVDGVYARLKDGYEIVEV
notes: selenophosphate synthetase SEPHS2 of Leishmania major, LmjF.36.5410, lacking the 69-residue N-terminal region; also called ΔN-LmSEPHS2
Take B1: the “stoichiometry N” value in series [1] was 2 and 4.

B2: Trypanosoma brucei selenophosphate synthetase (TbSEPHS2), recombinant full-length (enzyme, UniProt Q38A34 1-393, looked up)
chain: MSEKEGKVIPETNGMKRPRFDPVKLGLPEEFTLTDYTRLKGCSCKVPQPELLALLQSVSTTPGRRDVGMDCSIVKLQHKDETGKPLYMVSTTDFFFPSVEDPYLQGQIGAANVLSDLYSTGIDRCDTVLMLLAASTDMDKTEREVCTQEMMKGFVDHVRLAGSDVTGGQTVMNPWPLIGGIATSVVAESQMIRPTGLQPGDILVLTKPLGCQIAVNLKQWLRRPSPIFEEQIQGKMDSEEIEELYNAAADGMKRLNRMAAALMHSHGAHGATDVTGFGILGHAKNLGSAQKADVCLVLDSLPMYRGAVKASKLMGDKYRLFEGYAAETSGGLLVAFGTREEAEGYIRELYETDGEPAWVVGRVVRREGSAPYALLQKDYKIIEVGAKVNDKII
notes: selenophosphate synthetase SEPHS2 of Trypanosoma brucei, Tb927.10.9410, 393 residues (from the limits of the truncated constructs); also called SPS2; TbSPSH2
Take B2: the Kd in series [2] worked out at 5.2 µM.

B3: Leishmania major selenophosphate synthetase (LmSEPHS2), recombinant full-length (enzyme, UniProt Q4Q0M0 1-398, looked up)
chain: MSHKRPQSSAGESNGAVDLKTPRFDPVSLGLPAEFQLTDYTRLKGCSCKLPQPKLLALLQELSATPGQKDVGMDCSIVPLHHTNSKGEALFLVSTTDFFFPSVSDPFLQGQIGAANVLSDLYSMGIPDCDTMLMLLAASTEMDEHERLITTREIMKGFAERARLATTTVTGGQTVMNPWPLIGGVAMAVVSEAEMVRPTGLLCAGDILVLTKPLGCQVAVNLKQWLLRPSPLYEEAIAGHISPEEIEELYNMATDSMRRLNREGARLMRKHGAHGATDVTGFGILGHANNFGAAQAVGDAPRSLCLVLERLPMFKTAVAASKQMNDKYRLLEGYSAETSGGLLVAFPSTTAAAAFCAELTAVDGGCPSWIVGHVEDRATNAVDGVYARLKDGYEIVEV
notes: selenophosphate synthetase SEPHS2 of Leishmania major, LmjF.36.5410; also called LmSEPSH2
For the molecule B3, the “stoichiometry N” value in series [1] was 2 and 4. Besides, binding in series [3] was characterised by a dissociation constant (Kd) of 178 ± 10 µM.

B4: ΔN(25)-TbSEPHS2, amino acid residues 26-393 (domain or fragment, Trypanosoma brucei, UniProt Q38A34 26-393, looked up)
chain: GLPEEFTLTDYTRLKGCSCKVPQPELLALLQSVSTTPGRRDVGMDCSIVKLQHKDETGKPLYMVSTTDFFFPSVEDPYLQGQIGAANVLSDLYSTGIDRCDTVLMLLAASTDMDKTEREVCTQEMMKGFVDHVRLAGSDVTGGQTVMNPWPLIGGIATSVVAESQMIRPTGLQPGDILVLTKPLGCQIAVNLKQWLRRPSPIFEEQIQGKMDSEEIEELYNAAADGMKRLNRMAAALMHSHGAHGATDVTGFGILGHAKNLGSAQKADVCLVLDSLPMYRGAVKASKLMGDKYRLFEGYAAETSGGLLVAFGTREEAEGYIRELYETDGEPAWVVGRVVRREGSAPYALLQKDYKIIEVGAKVNDKII
notes: selenophosphate synthetase SEPHS2 of Trypanosoma brucei, Tb927.10.9410, residues 26-393; Cloned into pET20b with the printed oligonucleotides
As to B4, the “stoichiometry N” value in series [1] is 2 and 4.

B5: ΔN(70)-TbSEPHS2, residues 71-393 (domain or fragment, Trypanosoma brucei, UniProt Q38A34 71-393, looked up)
chain: CSIVKLQHKDETGKPLYMVSTTDFFFPSVEDPYLQGQIGAANVLSDLYSTGIDRCDTVLMLLAASTDMDKTEREVCTQEMMKGFVDHVRLAGSDVTGGQTVMNPWPLIGGIATSVVAESQMIRPTGLQPGDILVLTKPLGCQIAVNLKQWLRRPSPIFEEQIQGKMDSEEIEELYNAAADGMKRLNRMAAALMHSHGAHGATDVTGFGILGHAKNLGSAQKADVCLVLDSLPMYRGAVKASKLMGDKYRLFEGYAAETSGGLLVAFGTREEAEGYIRELYETDGEPAWVVGRVVRREGSAPYALLQKDYKIIEVGAKVNDKII
notes: selenophosphate synthetase SEPHS2 of Trypanosoma brucei, Tb927.10.9410, residues 71-393; Cloned into pET20b with the printed oligonucleotides; also called ΔN(70)-SEPHS2
In the case of B5, the “stoichiometry N” value in series [1] is 2 and 4.
